From US20180066058A1 (published 2018)
Values belong to the binder of their own block, whether it stands above or below them.

Assays:
[1] = target: T1, Human ICOS extracellular domain fused to human Fc (human, UniProt Q9Y6W8 21-140); test: SPR (ProteOn XPR36), human ICOS ECD-Fc captured, Fab analyte, pH 5.5, 37 C
T1 construct: Dimeric protein made in house from NCBI NP_036224.1; also called hICOS; hICOS Fc; not shown: human Fc region
T1 sequence: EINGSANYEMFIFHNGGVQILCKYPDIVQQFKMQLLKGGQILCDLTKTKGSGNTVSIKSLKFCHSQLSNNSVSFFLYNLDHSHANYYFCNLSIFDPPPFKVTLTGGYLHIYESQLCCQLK
Protocol: (§1) In addition, a comparison was performed of antibody:antigen binding affinity at different pH values. As before, the dimeric human ICOS protein, presented as the extracellular domain of ICOS fused to a human Fc region, was captured on the anti-human Fc capture surface created using the 3 antibody cocktail, immobilised on the GLC biosensor chip by primary amine coupling. SPR analysis of recombinantly expressed anti-ICOS Fabs was carried out on the ProteOn XPR36 Array system (Biorad). The Fab fragments were used as analyte to generate binding sensorgrams, which were double referenced with a buffer injection (i.e., 0 nM). The subsequent referenced sensorgrams were fitted to the 1:1 model inherent to the ProteOn analysis software. […] Data were fitted to the 1:1 model.

[2] = target: T1, Human ICOS extracellular domain fused …; test: SPR (ProteOn XPR36), human ICOS ECD-Fc captured, Fab analyte, pH 7.4, 37 C
Protocol: as §1

[3] = target: T1, Human ICOS extracellular domain fused …; test: SPR (ProteOn XPR36), Fc-tagged ICOS captured on anti-human IgG, Fab analyte, 25 C
Protocol: (§2) Fab affinities of the ICOS leads were generated by SPR using the ProteOn XPR3 6 (BioRad). An anti-human IgG capture surface was created on a GLC biosensor chip by primary amine coupling, immobilising three anti-human IgG antibodies (Jackson Labs 109-005-008, 109-006-008 and 309-006-008). […] Binding sensorgrams were double referenced using a buffer injection (i.e. 0 nM), and the data was fitted to the 1:1 model inherent to the ProteOn XPR36 analysis software. The assay was run at 25° C. and using HBS-EP as running buffer.

[4] = target: T2, Mouse ICOS extracellular domain fused to human Fc (mouse, UniProt Q9WVS0 21-141); test: as above
T2 construct: Made in house from NCBI NP_059508.2; also called mICOS; mICOS Fc; not shown: human Fc region
T2 sequence: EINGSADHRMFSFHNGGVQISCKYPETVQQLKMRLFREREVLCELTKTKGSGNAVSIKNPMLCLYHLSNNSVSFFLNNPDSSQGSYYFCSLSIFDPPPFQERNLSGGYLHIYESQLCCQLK
Protocol: as §2

[5] = target: T3, human ICOS-mFc (Chimerigen) (human, UniProt Q9Y6W8 21-140); test: HTRF neutralisation of Alexa 647 human B7-H2 binding to human ICOS-mFc; human IgG4.PE; mean, n = 4
T3 construct: also called human ICOS receptor; human ICOS Receptor; not shown: mouse Fc of the bought construct
T3 sequence: T1 sequence
Protocol: (§3) 5 μl of ICOS receptor (human ICOS-mFc, 20 nM, 5 nM final or mouse ICOS-mFc 4 nM, 1 nM final (Chimerigen)) was added to required wells. Plate was incubated for 1 hr at room temperature (RT).
(§4) Finally, 5 μl of anti-mouse IgG donor mAb (Southern Biotech) labelled with europium cryptate (Cis Bio), 40 nM, 10 nM final was added to each well and the assay was left in the dark at RT to incubate for a further 2 hours. After incubation, assay was read on Envision plate reader (Perkin Elmer) using a standard HTRF protocol. […] Titration curves and IC50 values [M] were plotted using Graphpad (Prism). IC50 values were calculated by first transforming the data using equation X=Log(X). The transformed data was then fitted using nonlinear regression, using fitting algorithm, log (inhibitor) vs. response—variable slope (four parameters).

[6] = target: T4, mouse ICOS-mFc (Chimerigen) (mouse, UniProt Q9WVS0 21-141, limits assumed); test: HTRF neutralisation of Alexa 647 mouse B7-H2 binding to mouse ICOS-mFc; human IgG4.PE; mean, n = 3
T4 construct: also called mouse ICOS receptor; mouse ICOS Receptor; not shown: mouse Fc of the bought construct
T4 sequence: T2 sequence
Protocol: as §3, §4

Kd [1]: 26.6 nM
Kd [2]: 41.8 nM
B1: STIM002-B Fab (Fab, V domains shown)
VH: QVQLVQSGGEVKKPGASVKVSCKASGYTFTSYGFSWVRQAPGQGLEWMGWISAYNGNTNYAQKLQGRVTMTTDTSTSTAYMELRSLRSDDTAVYYCARSTYFYGSGTLYGMDVWGQGTTVTVSS
VL: DIVMTQSPLSLPVTPGEPASISCRSSQSLLHSDGYNCLDWYLQKPGQSPQLLIYLGSTRASGFPDRFSGSGSGTDFTLKISRVEAEDVGVYYCMQALQTPCSFGQGTKLEIK
notes: Recombinantly expressed purified Fab

Kd [3]: 13.8 nM
Kd [4]: 318 nM
B2: STIM006 Fab (Fab, V domains shown)
VH: QVQLVESGGGLVKPGGSLRLSCAASGFTFSDYFMSWIRQAPGKGLEWISYISSSGSTIYYADSVRGRFTISRDNAKYSLYLQMNSLRSEDTAVYYCARDHYDGSGIYPLYYYYGLDVWGQGTTVTVSS
VL: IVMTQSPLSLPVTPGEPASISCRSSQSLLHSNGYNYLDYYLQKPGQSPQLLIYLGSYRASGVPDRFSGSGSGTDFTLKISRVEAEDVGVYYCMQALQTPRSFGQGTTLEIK
notes: Purified Fab

IC50 [5]: 1.6 nM
IC50 [6]: 0.3 nM
B3: STIM005 human IgG4.PE (antibody, V domains shown)
VH: QVQLVQSGAEVKKPGASVKVSCKASGYTFNSYGIIWVRQAPGQGLEWMGWISVHNGNTNCAQKLQGRVTMTTDTSTSTAYMELRSLRTDDTAVYYCARAGYDILTDFSDAFDIWGHGTMVTVSS
VL: DIQMTQSPSSLSASVGDRVTITCRASQNINNFLNWYQQKEGKGPKLLIYAASSLQRGIPSTFSGSGSGTDFTLTISSLQPEDFATYICQQSYGIPWVGQGTKVEIK
notes: Human IgG4.PE (null-effector) format
